The record followed here is patent publication US20030095983A1 (ZymoGenetics, published 2003).

Assay [1] has as its target TSH receptor (TSHR) on differentiated murine 3T3 L1 adipocytes (murine, UniProt P47750 22-764). Nature of the assay: cell-based or functional assay.
In assay [2] the target is TSH receptor (TSHR) on primary human adipocytes (human, UniProt P16473 21-764). Put plainly: cell-based or functional assay.
Assay [3] deals with T1, glycoprotein hormone beta 5 (GPHB5), human, beta subunit of CGH (human, UniProt Q86YW7 25-130).
T1 construct: Secreted from CHO 180 cells
T1 sequence: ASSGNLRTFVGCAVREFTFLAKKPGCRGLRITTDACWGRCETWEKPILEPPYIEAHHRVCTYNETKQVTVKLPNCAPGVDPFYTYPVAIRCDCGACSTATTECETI
Put plainly: co-expression in CHO cells; secreted heterodimer.

TSH receptor (TSHR) on primary human adipocytes, sequence (P16473 21-764): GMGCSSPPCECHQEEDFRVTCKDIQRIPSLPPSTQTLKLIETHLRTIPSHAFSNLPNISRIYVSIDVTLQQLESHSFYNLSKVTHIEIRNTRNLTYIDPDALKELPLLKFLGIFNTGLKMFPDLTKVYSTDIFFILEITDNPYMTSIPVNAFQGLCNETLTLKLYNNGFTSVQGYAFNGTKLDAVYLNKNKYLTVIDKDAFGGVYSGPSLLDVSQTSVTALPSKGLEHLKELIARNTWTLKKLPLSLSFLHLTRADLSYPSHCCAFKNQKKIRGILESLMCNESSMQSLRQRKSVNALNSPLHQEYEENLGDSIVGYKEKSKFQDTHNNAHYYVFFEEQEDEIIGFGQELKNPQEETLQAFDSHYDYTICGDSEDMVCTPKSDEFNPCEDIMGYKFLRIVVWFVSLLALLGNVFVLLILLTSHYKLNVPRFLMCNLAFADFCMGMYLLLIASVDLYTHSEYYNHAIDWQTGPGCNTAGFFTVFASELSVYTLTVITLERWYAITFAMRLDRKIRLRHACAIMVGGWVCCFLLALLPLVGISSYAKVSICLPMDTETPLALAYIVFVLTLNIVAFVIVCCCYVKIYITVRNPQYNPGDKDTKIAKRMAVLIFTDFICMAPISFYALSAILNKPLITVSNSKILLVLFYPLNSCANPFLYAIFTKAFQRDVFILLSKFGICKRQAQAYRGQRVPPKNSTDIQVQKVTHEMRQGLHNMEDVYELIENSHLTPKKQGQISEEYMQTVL
TSH receptor (TSHR) on differentiated murine 3T3 L1 adipocytes, sequence (P47750 22-764): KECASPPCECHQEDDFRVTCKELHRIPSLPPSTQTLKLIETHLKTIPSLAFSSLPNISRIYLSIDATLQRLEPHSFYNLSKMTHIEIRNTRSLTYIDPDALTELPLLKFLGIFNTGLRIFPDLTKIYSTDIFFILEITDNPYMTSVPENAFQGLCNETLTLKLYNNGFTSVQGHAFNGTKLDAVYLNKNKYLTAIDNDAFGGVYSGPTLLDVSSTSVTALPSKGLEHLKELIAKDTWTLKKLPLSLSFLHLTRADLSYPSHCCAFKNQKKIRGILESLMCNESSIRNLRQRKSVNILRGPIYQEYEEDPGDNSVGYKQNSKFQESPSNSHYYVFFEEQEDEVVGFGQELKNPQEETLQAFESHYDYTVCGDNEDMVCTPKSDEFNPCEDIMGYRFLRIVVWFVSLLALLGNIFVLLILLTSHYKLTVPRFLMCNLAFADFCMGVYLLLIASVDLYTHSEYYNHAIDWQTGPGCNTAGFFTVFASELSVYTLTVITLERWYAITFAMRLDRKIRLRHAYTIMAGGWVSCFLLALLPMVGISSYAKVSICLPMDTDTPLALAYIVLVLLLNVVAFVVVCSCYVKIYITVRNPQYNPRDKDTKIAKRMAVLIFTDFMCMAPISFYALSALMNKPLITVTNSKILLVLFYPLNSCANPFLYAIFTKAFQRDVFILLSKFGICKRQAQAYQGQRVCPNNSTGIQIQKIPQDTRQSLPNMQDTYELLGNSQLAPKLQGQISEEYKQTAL

B1: corticotroph-derived glycoprotein hormone (CGH), human recombinant, non-covalent heterodimer of GPHA2 and GPHB5 (ligand)
chain 1: QEAVIPGCHLHPFNVTVRSDRQGTCQGSHVAQACVGHCESSAFPSRYSVLVASGYRHNITSVSQCCTISGLKKVKVQLQCVGSRREELEIFTARACQCDMCRLSRY
chain 2: ASSGNLRTFVGCAVREFTFLAKKPGCRGLRITTDACWGRCETWEKPILEPPYIEAHHRVCTYNETKQVTVKLPNCAPGVDPFYTYPVAIRCDCGACSTATTECETI
Regarding B1, in assay [1], the “induction of luciferase expression (CRE-luciferase reporter, cAMP)” value is 27 fold. In addition, the “induction of the reporter gene (CRE-luciferase reporter, cAMP)” value in assay [2] worked out at 14 fold.

B2: glycoprotein hormone alpha2 (GPHA2), human, alpha subunit of CGH (ligand)
chain: QEAVIPGCHLHPFNVTVRSDRQGTCQGSHVAQACVGHCESSAFPSRYSVLVASGYRHNITSVSQCCTISGLKKVKVQLQCVGSRREELEIFTARACQCDMCRLSRY
notes: Secreted from CHO 180 cells; also called Zsig51
As to B2, the binding result in assay [3] was “binds”.
